Publication PMC7379572

Tests used:
Assay in all cases: EMSA
Details in all cases: EMSA: 0.25 pmol 3'-biotin DNA, 25°C 2 h, LightShift Chemiluminescent EMSA kit buffer (composition and pH not stated), 6% DNA retardation gel, 0.5x TBE
[1] = target: T1, XisF5 (Pseudomonas aeruginosa PA14) (UniProt A0A0H2Z817)
T1 sequence: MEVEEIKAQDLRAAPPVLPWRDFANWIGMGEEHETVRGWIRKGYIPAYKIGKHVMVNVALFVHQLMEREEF

[2] = test system: T2, XisF4 (Pseudomonas aeruginosa PAO1), ORF:74e9b1d3
T2 sequence: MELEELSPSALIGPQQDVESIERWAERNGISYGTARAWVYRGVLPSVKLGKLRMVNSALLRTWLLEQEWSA

[3] = test system: T3, Pf4r (Pseudomonas aeruginosa PAO1), ORF:4ff4b857
T3 sequence: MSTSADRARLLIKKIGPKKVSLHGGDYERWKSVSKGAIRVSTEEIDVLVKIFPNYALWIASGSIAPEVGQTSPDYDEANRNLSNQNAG

Sequence | binding [1] | binding [2] | binding [3]
CATTTGTCGCCGGAGTACCTGCGGGACGCTATTCGACTCAACCCGCTGGCGGATTTCGACAGTTCTTCGACACTTGTCGAGACGTCCTAGATTTTTCCTTTGCATATCAATAAGTTATGAGCGCTGATTCGGCTTTGCCGA (double strand) [Pf5 attL] | binds |  | 
CGCGGTAAAGCCTGAAAACAGAAAGCCCCTGGCACTGGTTGGTGTCAGGGGCTTTTGCATTGGGATCTGGAGCGGGCGAAGGGAATCGAACCCTCGTCATGAGCTTGGGAAGCTCAGGTAATGCCATTATACGACGCCCGCTCGGACGGCTTTTGCGGCCAGGGCGCCTTTTTACCAGATGCGCGGC (double strand) [Pf4 attB] |  | no binding | 
TCGATTGGGAATTCCTCGCCCCGGTGGCGATGGGCTGGGCGCTGCATCACTGGTGGACGGTGATGACGGCGCTAGCGGCGGTAGGGGTGCCGCCATGAGGGGCGGGCCGCGCCGCCGGCCGGGAGCGCAAGGCATGAGCGATAGGCCGAAGGCGCGGCCGACGCCCCTGTAACACGTCAGATAAGCCACCTATTGCGGTTTCAATTCGTACCAATTTGGATCGTTAAAG (double strand) [P4 (PA0727 promoter)] |  | binds | 
TGCGCTCCGCCCACCGTTCGATGGACTCCACATCCTGTTGCGGCCCTATCAGGGCACTGGGGCTAAGCTCTTCCAGTTCCATGCTCATTCCGTCACTATTCGTGGCATTAGCCATACGCAGCTAGAGAAATAATTACCCTGGAGAAATTATTTCCCCAAAGCCACGTCAGGGCAACTATTTCCCCGGAATAAATTTCTATATGAGCACGTCAGCCGATAGAGCAAGACTATT (double strand) [P1 (xisF4-pf4r intergenic region)] |  | binds | binds
TTCGCCGGGGTGATCGACACCAGCGCGGTGGAATCGGCGATCACCGATGGCCAGGGCGATATGAAGGCCATTGGCGGCTACATCGTCGGCGCCCTGGTGATCCTGGCCGTTGCCGGCCTGATCTACAGCATGTTGCGCAAGGCGTAACGGGTGCTCTGGTCGGTGTGGTTGGGGGCGTTCTTCGCCGGCGCCTTCATCACCGGGTACCGGACCGGCGAATTCTTCTAACCGAACAGACCGAGGCGGAAGCCCCCTCCGGAGTTTCCGGCAGGGGGCTTTTTTGTGTGGGGTCTTACG (double strand) [P3 (PA0724 promoter)] |  | no binding | 
